Our source for the kcat/Km (cleavage of conjugate, HPLC) values is patent US20020103133.

One data set deals with T1, acetyl-G-P-L-G-L-A-L-Dox.
T1 chain: XPLGLAL

The target of data set [1] is T2, acetyl-P-L-G-Hof-Orn-L-Dox.
T2 chain: XLGXXL

A further data set concerns the target T3, acetyl-P-L-G-L-L-Dox.
T3 chain: XLGLL

The next data set has as its target T4, acetyl-P-L-G-Hof-Y-L-Dox.
T4 chain: XLGXYL

For a further data set, the target named is T5, acetyl-G-P-L-G-L-Y-Dox.
T5 chain: XPLGLY

For another data set, the target named is T6, acetyl-P-L-G-L-L-S-L-Dox.
T6 chain: XLGLLSL

The next data set concerns the target T7, acetyl-P-L-G-L-A-L-Dox.
T7 chain: XLGLAL

The target in the next data set is T8, acetyl-P-L-G-L-L-A-L-Dox.
T8 chain: XLGLLAL

The target of another data set is T9, acetyl-P-L-G-L-Y-L-Dox.
T9 chain: XLGLYL

In another data set the target is T10, acetyl-G-P-L-G-L-L-Dox.
T10 chain: XPLGLL

The target in data set [2] is T11, succinyl-P-L-G-Hof-Y-L-Dox.
T11 chain: XLGXYL

The next data set addresses T12, acetyl-P-L-G-L-A-A-L-Dox.
T12 chain: XLGLAAL

The target of a further data set is T13, acetyl-P-L-G-L-Y-A-L-Dox.
T13 chain: XLGLYAL

B1: Neprilysin (protein)
chain: YDDGICKSSDCIKSAARLIQNMDATTEPCTDFFKYACGGWLKRNVIPETSSRYGNFDILRDELEVVLKDVLQEPKTEDIVAVQKAKALYRSCINESAIDSRGGEPLLKLLPDIYGWPVATENWEQKYGASWTAEKAIAQLNSKYGKKVLINLFVGTDDKNSVNHVIHIDQPRLGLPSRDYYECTGIYKEACTAYVDFMISVARLIRQEERLPIDENQLALEMNKVMELEKEIANATAKPEDRNDPMLLYNKMTLAQIQNNFSLEINGKPFSWLNFTNEIMSTVNISITNEEDVVVYAPEYLTKLKPILTKYSARDLQNLMSWRFIMDLVSSLSRTYKESRNAFRKALYGTTSETATWRRCANYVNGNMENAVGRLYVEAAFAGESKHVVEDLIAQIREVFIQTLDDLTWMDAETKKRAEEKALAIKERIGYPDDIVSNDNKLNNEYLELNYKEDEYFENIIQNLKFSQSKQLKKLREKVDKDEWISGAAVVNAFYSSGRNQIVFPAGILQPPFFSAQQSNSLNYGGIGMVIGHEITHGFDDNGRNFNKDGDLVDWWTQQSASNFKEQSQCMVYQYGNFSWDLAGGQHLNGINTLGENIADNGGLGQAYRAYQNYIKKNGEEKLLPGLDLNHKQLFFLNFAQVWCGTYRPEYAVNSIKTDVHSPGNFRIIGTLQNSAEFSEAFHCRKNSYMNPEKKCRVW
Regarding B1, the kcat/Km (cleavage of conjugate, HPLC) in the data set with acetyl-G-P-L-G-L-A-L-Dox is 4.2e+07 M⁻¹ s⁻¹; in [1], below 1e+06 M⁻¹ s⁻¹; with acetyl-P-L-G-L-L-Dox it was 2.2e+07 M⁻¹ s⁻¹; with acetyl-P-L-G-Hof-Y-L-Dox it was below 1e+06 M⁻¹ s⁻¹; with acetyl-G-P-L-G-L-Y-Dox, 1.9e+07 M⁻¹ s⁻¹; in the data set with acetyl-P-L-G-L-L-S-L-Dox, 8.2e+07 M⁻¹ s⁻¹. For the same protein, the kcat/Km (cleavage of conjugate, HPLC) is 4.9e+07 M⁻¹ s⁻¹ with acetyl-P-L-G-L-A-L-Dox; 1e+08 M⁻¹ s⁻¹ with acetyl-P-L-G-L-L-A-L-Dox; 2.2e+07 M⁻¹ s⁻¹ with acetyl-P-L-G-L-Y-L-Dox; 2e+07 M⁻¹ s⁻¹ in the data set with acetyl-G-P-L-G-L-L-Dox; below 1e+06 M⁻¹ s⁻¹ in data set [2]; 1.2e+08 M⁻¹ s⁻¹ with acetyl-P-L-G-L-A-A-L-Dox. In addition, in the data set with acetyl-P-L-G-L-Y-A-L-Dox, the kcat/Km (cleavage of conjugate, HPLC) is 3.88e+08 M⁻¹ s⁻¹.

B2: MMP-2 (protein)
chain: YNFFPRKPKWDKNQITYRIIGYTPDLDPETVDDAFARAFQVWSDVTPLRFSRIHDGEADIMINFGRWEHGDGYPFDGKDGLLAHAFAPGTGVGGDSHFDDDELWTLGEGQVVRVKYGNADGEYCKFPFLFNGKEYNSCTDTGRSDGFLWCSTTYNFEKDGKYGFCPHEALFTMGGNAEGQPCKFPFRFQGTSYDSCTTEGRTDGYRWCGTTEDYDRDKKYGFCPETAMSTVGGNSEGAPCVFPFTFLGNKYESCTSAGRSDGKMWCATTANYDDDRKWGFCPDQGYSLFLVAAHEFGHAMGLEHSQDPGALMAPIYTYTKNFRLSQDDIKGIQELYGASPDIDLGTGPTPTLGPVTPEICKQDIVFDGIAQIRGEIFFFKDRFIWRTVTPRDKPMGPLLVATFWPELPEKIDAVYEAPQEEKAVFFAGNEYWIYSASTLERGYPKPLTSLGLPPDVQRVDAAFNWSKNKKTYIFAGDKFWRYNEVKKKMDPGFPKLIADAWNAIPDNLDAVVDLQGGGHSYFFKGAYYLKLENQSLKSVKFGSIKSDWLGC
With B2, the kcat/Km (cleavage of conjugate, HPLC) is 8.6e+07 M⁻¹ s⁻¹ with acetyl-G-P-L-G-L-A-L-Dox; 1.36e+08 M⁻¹ s⁻¹ in data set [1]; 1.8e+07 M⁻¹ s⁻¹ in the data set with acetyl-P-L-G-L-L-Dox; above 1.2e+08 M⁻¹ s⁻¹ with acetyl-P-L-G-Hof-Y-L-Dox; 4e+07 M⁻¹ s⁻¹ with acetyl-G-P-L-G-L-Y-Dox; 1.03e+08 M⁻¹ s⁻¹ with acetyl-P-L-G-L-L-S-L-Dox. Also, the kcat/Km (cleavage of conjugate, HPLC) is 5.3e+07 M⁻¹ s⁻¹ with acetyl-P-L-G-L-A-L-Dox; 6.3e+07 M⁻¹ s⁻¹ with acetyl-P-L-G-L-L-A-L-Dox; 8.8e+07 M⁻¹ s⁻¹ with acetyl-P-L-G-L-Y-L-Dox; 3e+07 M⁻¹ s⁻¹ with acetyl-G-P-L-G-L-L-Dox; above 1.2e+08 M⁻¹ s⁻¹ in data set [2]; 1.1e+08 M⁻¹ s⁻¹ with acetyl-P-L-G-L-A-A-L-Dox. In addition, the kcat/Km (cleavage of conjugate, HPLC) with acetyl-P-L-G-L-Y-A-L-Dox turned out to be 1.9e+08 M⁻¹ s⁻¹.
